Laboratory results from patent US20110059889A1 (SYNTONIX PHARMACEUTICALS, published 2011).
Read-outs that look alike come from different tables or passages of the source. Bridge positions count the residues as written; N and C are the ends. Square brackets hold non-standard residues; d marks the D form. Ends that are not written are not given here. NMeL = CN[C@@H](CC(C)C)C(=O)O; Pen = CC(C)(S)[C@H](N)C(=O)O; Sar = CNCC(=O)O

Columns and labels:
[1] = molecular target: T1, soluble human FcRn (shFcRn) (human, UniProt P55899 24-297; P61769 21-119); assay: SPR pH 6; 2-PyrrolidinylAla in place of His
T1 construct: Biotinylated for the ELISA, amine-coupled to a CM5 chip for SPR; also called biotinylated shFcRn
T1 sequence (P55899 24-297 limits assumed, chain 1 of 2): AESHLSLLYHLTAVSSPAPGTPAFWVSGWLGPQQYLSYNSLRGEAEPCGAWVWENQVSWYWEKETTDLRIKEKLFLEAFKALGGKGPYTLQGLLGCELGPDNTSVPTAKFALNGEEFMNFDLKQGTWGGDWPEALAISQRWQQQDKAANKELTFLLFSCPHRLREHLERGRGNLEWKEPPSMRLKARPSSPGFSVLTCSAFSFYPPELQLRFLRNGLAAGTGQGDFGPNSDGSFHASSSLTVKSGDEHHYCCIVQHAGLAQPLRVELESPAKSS
T1 sequence (P61769 21-119 limits assumed, chain 2 of 2): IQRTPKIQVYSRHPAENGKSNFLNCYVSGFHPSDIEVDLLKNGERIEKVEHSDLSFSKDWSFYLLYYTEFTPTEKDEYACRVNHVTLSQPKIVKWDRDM
Description: (§1) The following steps were performed to cross-link soluble human or cynomolgus FcRn to the dextran surface of a CM5 sensor chip (Biacore AB, Uppsala, Sweden) by an amine coupling reaction involving 1-ethyl-(3-dimethylaminopropyl)-carbodiimide hydrochloride (EDC) (Biacore AB, Uppsala, Sweden) and N-hydroxysuccinimide (NHS) (Biacore AB, Uppsala, Sweden) as recommended by Biacore (BIAapplications Handbook, version AB, section 4.2, Biacore AB, Uppsala, Sweden). […] Residual sites on the FcRn flow cell were blocked with 1 M ethanolamine hydrochloride pH 8.5 (Biacore AB, Uppsala, Sweden). A control flow cell was blocked with ethanolamine for reference subtraction. For analysis of the monomeric peptides, FcRn was coated to a final density of 4000-5000 response units (RU). For analysis of the peptide dimers, FcRn was coated to a density of 2000-2500 RU. All SPR measurements were performed using a BIACORE 3000 Instrument (Biacore AB Uppsala, Sweden). For measurements done at either pH 6 or pH 7.4, experiments were performed in 50 mM phosphate, 100 mM sodium chloride, 0.01% surfactant P20 (Biacore AB, Uppsala, Sweden).
(§2) Ten, 2-fold dilutions of the peptide were injected over the FcRn-CM5 chip at a rate of 20 μl/min for 2 min. The peptide was dissociated from the chip for 2.5 minutes with buffer. […] Sensorgrams were generated and analyzed using BiaEval software version 3.1 (Biacore AB, Uppsala, Sweden). […]

[2] = molecular target: T1, soluble human FcRn (shFcRn); assay: IgG competition ELISA
Description: (§3) The wells were coated with 100 μl/well of 1 μg/ml biotinylated-shFcRn in Buffer A. The plate was sealed and incubated at 37° C. for 2 hours. Afterwards, the plate was washed with 200 μl/well of Buffer B (Buffer B: 100 mM MES pH 6, 150 mM NaCl, 0.5% BSA IgG-free (Jackson ImmunoResearch, West Grove, Pa.), 0.05% Tween-20). […] To allow for mixing, the plate was rocked for 2 minutes, sealed and incubated at 37° C. for 2 hours. […] The plate was covered, incubated for 30 minutes at room temperature and washed 4 times with 200 μl/well of ice-cold buffer B. SureBlue TMB substrate solution (100 μl/well, KPL, Gaithersburg, Md.) was added and the plate was allowed to incubate at room temperature until color developed, which took 5 to 10 minutes. Once color developed, 100 μl/well of TMB stop solution (KPL, Gaithersburg, Md.) was added and the absorbance was measured at 450 nm. The data was plotted as absorbance vs. peptide concentration to derive the inhibitory concentration 50% (IC₅₀) values.

[3] = molecular target: T1, soluble human FcRn (shFcRn); assay: SPR pH 7.4; 3PyridylAla in place of His
Description: as §1, §2

[4] = molecular target: T1, soluble human FcRn (shFcRn); assay: SPR pH 6; 3PyridylAla in place of His
Description: as §1, §2

[5] = molecular target: T1, soluble human FcRn (shFcRn); assay: SPR pH 6; Orn in place of His
Description: as §1, §2

[6] = molecular target: T1, soluble human FcRn (shFcRn); assay: SPR pH 6; 4-PiperidylAla in place of His
Description: as §1, §2

[7] = molecular target: T1, soluble human FcRn (shFcRn); assay: SPR pH 7.4; 4-PiperidylAla in place of His
Description: as §1, §2

[8] = molecular target: T1, soluble human FcRn (shFcRn); assay: IgG competition ELISA; remark: listed apart in the source
Description: as §3

[9] = molecular target: T1, soluble human FcRn (shFcRn); assay: SPR pH 7.4; ThienylAla in place of His
Description: as §1, §2

[10] = molecular target: T1, soluble human FcRn (shFcRn); assay: SPR pH 6; ThienylAla in place of His
Description: as §1, §2

[11] = molecular target: T1, soluble human FcRn (shFcRn); assay: SPR pH 7.4; 4-PyridylAla in place of His
Description: as §1, §2

[12] = molecular target: T1, soluble human FcRn (shFcRn); assay: SPR pH 6; 4-PyridylAla in place of His
Description: as §1, §2

[13] = molecular target: T1, soluble human FcRn (shFcRn); assay: SPR pH 7.4
Description: as §1, §2

[14] = molecular target: T1, soluble human FcRn (shFcRn); assay: IgG competition ELISA; remark: listed apart in the source
Description: as §3

[15] = molecular target: T1, soluble human FcRn (shFcRn); assay: SPR pH 6; Peptide No. 31: lower-case c at both Cys (QRF-c-…-c-NGP)
Description: as §1, §2

[16] = molecular target: T1, soluble human FcRn (shFcRn); assay: IgG competition ELISA; remark: listed apart in the source
Description: as §3

[17] = molecular target: T1, soluble human FcRn (shFcRn); assay: IgG competition ELISA; remark: listed apart in the source
Description: as §3

[18] = molecular target: T1, soluble human FcRn (shFcRn); assay: SPR pH 6
Description: as §1, §2

[19] = molecular target: T1, soluble human FcRn (shFcRn); assay: IgG competition ELISA; remark: listed apart in the source
Description: as §3

[20] = molecular target: T1, soluble human FcRn (shFcRn); assay: SPR pH 6; remark: listed apart in the source
Description: as §1
(§4) Ten, 2-fold dilutions of the peptide were injected over the FcRn-CM5 chip at a rate of 20 μl/min for 2 min. The peptide was dissociated from the chip for 2.5 minutes with buffer. Any remaining peptide was removed from the chip with a 30 second injection of HBS-P buffer (Biacore AB, Uppsala, Sweden) at a rate of 30 μl/min. Sensorgrams were generated and analyzed using BiaEval software version 3.1 (Biacore AB, Uppsala, Sweden). The equilibrium RU observed for each injection was plotted against concentration. The equilibrium KD values were derived by analysis of the plots using the steady state affinity model included in the BiaEval software.

[21] = molecular target: T1, soluble human FcRn (shFcRn); assay: IgG competition ELISA; remark: listed apart in the source
[22] = molecular target: T1, soluble human FcRn (shFcRn); assay: SPR pH 6; remark: listed apart in the source
Description: as §1, §4

[23] = molecular target: T1, soluble human FcRn (shFcRn); assay: SPR pH 6; remark: listed apart in the source
Description: as §1, §4

[24] = molecular target: T1, soluble human FcRn (shFcRn); assay: SPR pH 6; remark: listed apart in the source
Description: as §1, §2

[25] = molecular target: T1, soluble human FcRn (shFcRn); assay: IgG competition ELISA; remark: listed apart in the source
Description: as §3

[26] = molecular target: T1, soluble human FcRn (shFcRn); assay: SPR pH 6; remark: listed apart in the source
Description: as §1, §4

[27] = molecular target: T1, soluble human FcRn (shFcRn); assay: SPR pH 6; remark: listed apart in the source
Description: as §1, §2

[28] = molecular target: T1, soluble human FcRn (shFcRn); assay: SPR pH 6; remark: listed apart in the source
[29] = molecular target: T1, soluble human FcRn (shFcRn); assay: SPR pH 6; remark: listed apart in the source
Description: as §1, §4

[30] = molecular target: T1, soluble human FcRn (shFcRn); assay: IgG competition ELISA; remark: listed apart in the source
Description: as §3

[31] = molecular target: T1, soluble human FcRn (shFcRn); assay: IgG competition ELISA; remark: listed apart in the source
[32] = molecular target: T1, soluble human FcRn (shFcRn); assay: IgG competition ELISA; remark: listed apart in the source
Description: as §3

[33] = molecular target: T1, soluble human FcRn (shFcRn); assay: SPR pH 6; remark: listed apart in the source
Description: as §1, §4

[34] = molecular target: T1, soluble human FcRn (shFcRn); assay: IgG competition ELISA; remark: listed apart in the source
Description: as §3

[35] = molecular target: T1, soluble human FcRn (shFcRn); assay: SPR pH 6; remark: listed apart in the source
Description: as §1, §2

[36] = molecular target: T1, soluble human FcRn (shFcRn); assay: IgG competition ELISA; remark: listed apart in the source
Description: as §3

B1: Peptide No. 262 (peptide)
peptide: RFCTGXFGGLYPC
modifications: Pen 3; 2-PyrrolidinylAla 6; Sar 9; NMeLeu 10; disulfide 3-13; C-terminal amide
Kd [1]: 8400 nM

B2: Peptide No. 250 (peptide)
peptide: RFCTGXFGGLYPC
modifications: Pen 3; 3PyridylAla 6; Sar 9; NMeL 10; disulfide 3-13; C-terminal amide
IC50 [2]: 1200 nM | Kd [3]: 260 nM | Kd [4]: 64 nM

B3: Peptide No. 254 (peptide)
peptide: RFCTGXFGGLYPC
modifications: Pen 3; Orn 6; Sar 9; NMeL 10; disulfide 3-13; C-terminal amide
Kd [5]: 1300 nM

B4: Peptide No. 264 (peptide)
peptide: RFCTGXFGGLYPC
modifications: Pen 3; 4-PiperidylAla 6; Sar 9; NMeLeu 10; disulfide 3-13; C-terminal amide
IC50 [2]: 85000 nM | Kd [6]: 5200 nM | Kd [7]: 6400 nM

B5: Peptide No. 289 (peptide)
peptide: RF[Pen]TGHFG[Sar][NMeL]YPC-NH2
modifications: disulfide 3-13; also: dimer: N-termini joined by an Asp linker carrying PEG 30 kDa, further groups not given here
notes: site of PEG only in drawing CHEM-US-00136; also called Pegylated Analog of Peptide No. 285
IC50 [8]: 18 nM

B6: Peptide No. 251 (peptide)
peptide: RFCTGXFGGLYPC
modifications: Pen 3; ThienylAla 6; Sar 9; NMeL 10; disulfide 3-13; C-terminal amide
Kd [9]: 3000 nM | IC50 [2]: 45000 nM | Kd [10]: 2000 nM

B7: Peptide No. 268 (peptide)
peptide: RFCTGXFGGLYPC
modifications: Pen 3; 4-PyridylAla 6; Sar 9; NMeLeu 10; disulfide 3-13; C-terminal amide
Kd [11]: 280 nM | Kd [12]: 67 nM | IC50 [2]: 1300 nM

B8: Peptide No. 24 (peptide)
peptide: QRFCTGHF[dA][dA]LYPCNGP-NH2
modifications: disulfide 4-14; N-terminus assumed
SMILES: CC(C)C[C@@H]1NC(=O)[C@@H](C)NC(=O)[C@@H](C)NC(=O)[C@H](Cc2ccccc2)NC(=O)[C@H](Cc2c[nH]cn2)NC(=O)CNC(=O)[C@H]([C@@H](C)O)NC(=O)[C@@H](NC(=O)[C@H](Cc2ccccc2)NC(=O)[C@H](CCCNC(=N)N)NC(=O)[C@@H](N)CCC(N)=O)CSSC[C@@H](C(=O)N[C@@H](CC(N)=O)C(=O)NCC(=O)N2CCC[C@H]2C(N)=O)NC(=O)[C@@H]2CCCN2C(=O)[C@H](Cc2ccc(O)cc2)NC1=O
Kd [13]: > 250000 nM

B9: Peptide No. 31 (peptide)
peptide: QRF[dC]TGHFGGLYP[dC]NGP-NH2
modifications: disulfide 4-14; N-terminus assumed
SMILES: CC(C)C[C@@H]1NC(=O)CNC(=O)CNC(=O)[C@H](Cc2ccccc2)NC(=O)[C@H](Cc2c[nH]cn2)NC(=O)CNC(=O)[C@H]([C@@H](C)O)NC(=O)[C@H](NC(=O)[C@H](Cc2ccccc2)NC(=O)[C@H](CCCNC(=N)N)NC(=O)[C@@H](N)CCC(N)=O)CSSC[C@H](C(=O)N[C@@H](CC(N)=O)C(=O)NCC(=O)N2CCC[C@H]2C(N)=O)NC(=O)[C@@H]2CCCN2C(=O)[C@H](Cc2ccc(O)cc2)NC1=O
IC50 [14]: > 500000 nM | Kd [15]: 200000 nM

B10: Peptide No. 32 (peptide)
peptide: QRF[Pen]TGHFGGLYPCNGP-NH2
modifications: disulfide 4-14; N-terminus assumed
SMILES: CC(C)C[C@@H]1NC(=O)CNC(=O)CNC(=O)[C@H](Cc2ccccc2)NC(=O)[C@H](Cc2c[nH]cn2)NC(=O)CNC(=O)[C@H]([C@@H](C)O)NC(=O)[C@@H](NC(=O)[C@H](Cc2ccccc2)NC(=O)[C@H](CCCNC(=N)N)NC(=O)[C@@H](N)CCC(N)=O)C(C)(C)SSC[C@@H](C(=O)N[C@@H](CC(N)=O)C(=O)NCC(=O)N2CCC[C@H]2C(N)=O)NC(=O)[C@@H]2CCCN2C(=O)[C@H](Cc2ccc(O)cc2)NC1=O
IC50 [16]: 2000 nM | IC50 [17]: 2000 nM | Kd [18]: 250 nM | IC50 [19]: 2000 nM | IC50 [14]: 2000 nM | Kd [20]: 250 nM | IC50 [2]: 2000 nM | IC50 [21]: 2000 nM | Kd [22]: 250 nM | Kd [23]: 250 nM | Kd [24]: 250 nM | IC50 [25]: 2000 nM | Kd [26]: 250 nM | Kd [27]: 250 nM | Kd [28]: 250 nM | Kd [29]: 250 nM | IC50 [30]: 2000 nM | IC50 [31]: 2000 nM | IC50 [32]: 2000 nM | Kd [33]: 250 nM | IC50 [34]: 2000 nM | Kd [35]: 250 nM

B11: Peptide No. 167 (peptide)
peptide: QRFVTGHFG[dP]LYPVNGP-NH2
IC50 [36]: 93000 nM
